Assay [1] deals with T1, LIV-1 expressed on the cell surface of cancer cell lines (human) (UniProt Q13433).
T1 sequence (looked up): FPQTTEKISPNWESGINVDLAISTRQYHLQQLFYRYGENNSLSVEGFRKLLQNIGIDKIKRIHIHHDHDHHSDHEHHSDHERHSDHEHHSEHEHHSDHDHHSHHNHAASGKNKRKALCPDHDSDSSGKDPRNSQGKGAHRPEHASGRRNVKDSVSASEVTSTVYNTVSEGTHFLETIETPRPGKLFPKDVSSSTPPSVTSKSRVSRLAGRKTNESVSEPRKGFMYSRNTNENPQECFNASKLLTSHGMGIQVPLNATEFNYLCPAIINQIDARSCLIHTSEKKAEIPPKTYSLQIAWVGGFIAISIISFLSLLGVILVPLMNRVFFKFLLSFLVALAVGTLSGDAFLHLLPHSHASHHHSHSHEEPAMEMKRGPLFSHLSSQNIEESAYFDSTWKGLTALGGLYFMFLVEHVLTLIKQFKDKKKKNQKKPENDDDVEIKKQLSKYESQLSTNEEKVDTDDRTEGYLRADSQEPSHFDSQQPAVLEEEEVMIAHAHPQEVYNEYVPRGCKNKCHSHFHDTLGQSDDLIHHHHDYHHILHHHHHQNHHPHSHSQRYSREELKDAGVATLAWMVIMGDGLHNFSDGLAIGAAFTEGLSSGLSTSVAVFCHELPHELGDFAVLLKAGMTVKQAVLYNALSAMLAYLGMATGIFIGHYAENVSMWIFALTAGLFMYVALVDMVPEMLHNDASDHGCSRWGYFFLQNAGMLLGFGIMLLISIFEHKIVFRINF
Briefly: flow cytometry, isotype control, HCC 1806 cells (endogenous LIV-1). On the technique in general: A flow cytometer gives signals particle by particle.

Assay [2] has as its target T1, LIV-1 expressed on the cell surface of cancer cell lines (human). Nature of the assay: flow cytometry, isotype control, MCF7-Liv1 #12 cells (moderate exogenous LIV-1).
Assay [3] shares this target. Nature of the assay: flow cytometry, isotype control, Calu6 cells (endogenous LIV-1).
Assay [4] shares this target. Nature of the assay: flow cytometry, isotype control, MCF7-Liv1 #17 cells (high exogenous LIV-1).
For assay [5] the target is unchanged. Nature of the assay: flow cytometry, isotype control, MCF7-Liv1 #7 cells (high exogenous LIV-1).
For assay [6] the target is unchanged. Briefly: flow cytometry, isotype control, PC-3 cells (endogenous LIV-1).
For assay [7], the system named is PA-1 mouse subcutaneous tumors. Nature of the assay: PA-1 ovarian cancer xenograft efficacy study. Format: in vivo, CD1 athymic nude mice. As to conditions: Single dose of 3 mg/kg, intravenous injection. Here is the method:
(§1) Tumor cells grown in the implantation culture of CD1 athymic nude mice: Calu-6 (2.5 × 10^6 cells in 50% matrigel) from ATCC, PC-3 (2.5 × 10^6 cells) from ATCC, and PA-1 (5 × 10^6 cells in 50% matrigel) from ATCC. Tumor cells grown in the implantation culture of NSG mice: HCC1806 (2.5 × 10^6 cells in 50% matrigel) from ATCC and MCF-7 (10 × 10^6 cells; for the in vivo growth of MCF-7, 8.5 µg/mL estradiol was added to the drinking water of female mice) from NCI.
(§2) When the tumors grew to 150 mm^3, the humanized LIV-1 ADC or the non-binding control ADC (1 mg/kg, 3 mg/kg, 6 mg/kg, or 10 mg/kg) was administered by intravenous injection once every four days for a total of four administrations (q4d × 4), by intravenous injection once every week for a total of 2 administrations (qw × 2), or by single intravenous injection. The tumor volume was monitored using a caliper, and the animals were euthanized when the tumor volume reached about 2000 mm^3. Tumor volume plots were continued for each group until one or more animals were euthanized. All animal procedures were conducted in a facility approved by the Association for Assessment and Accreditation of Laboratory Animal Care in accordance with protocols approved by the Institutional Animal Care and Use Committee. TGI was calculated as follows: TGI (%) = 1−[(Td−T0)/(Cd−C0)] × 100% [formula] […]

Assay [8] concerns PC3 mouse subcutaneous tumors. Briefly: PC3 prostate cancer xenograft efficacy study. The class given is in vivo, CD1 athymic nude mice. As to conditions: Single dose of 10 mg/kg, intravenous injection. Here is the method:
as §1, §2

In assay [9] the target is T1, LIV-1 expressed on the cell surface of cancer cell lines (human). Briefly: flow cytometry, antibody A against IgG1 isotype control, PC-3 cells.
The target is the same in assay [10]. Nature of the assay: flow cytometry, antibody A against IgG1 isotype control, HCC 1806 cells.
The target is the same in assay [11]. Nature of the assay: flow cytometry, 10 µg/mL antibody, HCC 1806 cells (endogenous LIV-1).
For assay [12] the target is unchanged. Briefly: flow cytometry, 10 µg/mL antibody, Calu6 cells (endogenous LIV-1).
Assay [13] shares this target. Briefly: flow cytometry, antibody A against IgG1 isotype control, MCF7-Liv1 #7 cells.
The target is the same in assay [14]. Nature of the assay: flow cytometry, 10 µg/mL antibody, MCF7-Liv1 #7 cells (high exogenous LIV-1).
For assay [15] the target is unchanged. Nature of the assay: flow cytometry, antibody A against IgG1 isotype control, Calu6 cells.
Assay [16] has the same target. Nature of the assay: flow cytometry, 10 µg/mL antibody, PC-3 cells (endogenous LIV-1).
Assay [17] has the same target. Briefly: flow cytometry, 10 µg/mL antibody, MCF7-Liv1 #12 cells (moderate exogenous LIV-1).
Assay [18] shares this target. Briefly: flow cytometry, 10 µg/mL antibody, MCF7-Liv1 #17 cells (high exogenous LIV-1).
Assay [19] shares this target. Nature of the assay: flow cytometry, antibody A against IgG1 isotype control, MCF7-Liv1 #12 cells.
The target is the same in assay [20]. Nature of the assay: flow cytometry, antibody A against IgG1 isotype control, MCF7-Liv1 #17 cells.
The target of assay [21] is T2, LIV-1 expressed on the cell surface of cancer cell lines (human, UniProt Q13433 29-755).
T2 sequence (looked up): T1 sequence (looked up)
Nature of the assay: cell-based or functional assay.

Assay [22] concerns the target human LIV-1 antigen (with a His tag, NP_036451.1, amino acids Phe229-Ile323) (human) (UniProt Q13433). Briefly: ForteBio (BLI). Background: In BLI a coated tip is dipped into the sample, and binding shifts an interference pattern.

In general, Kd refers to the free concentration of one partner at which half of the binding sites on the other are occupied at equilibrium, for simple one-to-one binding. A lower Kd goes with tighter binding. What is called koff is a measure of how fast the partners let go of each other. A high value points to fast dissociation. The term kon denotes the second-order rate constant of association. A lower kon goes with slower complex formation.

Residue numbers refer to the chain shown, from its start.

In the case of “non-specific isotype control commercial antibody IgG (BioXCell, BE0297)”, the MFI (RFU) amounted to 2180 RFU in assay [1]; 3120 RFU in assay [2]; 4440 RFU in assay [3]; 1510 RFU in [4]; 3410 RFU in assay [5]; 2840 RFU in assay [6].

B1: L-McMMAE: Ladiratuzumab antibody L conjugated to MC-MMAE, DAR of 3.5-4; prior-art ADC targeting Liv-1 (conjugate, chains of the INN, looked up)
VH: QVQLVQSGAEVKKPGASVKVSCKASGLTIEDYYMHWVRQAPGQGLEWMGWIDPENGDTEYGPKFQGRVTMTRDTSINTAYMELSRLRSDDTAVYYCAVHNAHYGTWFAYWGQGTLVTVSS
VL: DVVMTQSPLSLPVTLGQPASISCRSSQSLLHSSGNTYLEWYQQRPGQSPRPLIYKISTRFSGVPDRFSGSGSGTDFTLKISRVEAEDVGVYYCFQGSHVPYTFGGGTKVEIK
modifications: MC-MMAE payload
On to B1, for which, in assay [7], the “Tumor growth inhibition rate TGI% (day 13 after administration)” value amounted to 26.68%. Moreover, in assay [8], the “Tumor growth inhibition rate TGI% (day 24 after administration)” value stood at 103.92%.

B2: Antibody A (antibody, human IgG1, kappa, V domains shown)
VH: EVQLVQSGAEVKKPGATVKISCKASGLNIEDYYMHWVQQAPGKGLEWMGWIDPENGDTEYAEKFQGRVTITADTSTNTAYMELSSLRSEDTAVYYCTVHNAHYGTWFAYWGQGTTVTVSS
VL: DIVMTQTPLSLSVTPGQPASISCRSSQTLVRSDGNTYLEWYLQKPGQSPQLLIYRVSNRFSGVPDRFSGSGSGTDFTLKISRVEAEDVGVYYCFQGSHVPYTFGGGTKLEIKR
For B2, the MFI ratio (MFI of anti-LIV-1/MFI of control antibody) in [9] came to 2; in assay [10], 2; in [13], 38.7; in [15], 2.5; in assay [19] it was 6.7; in assay [20], 71.1. Also, the MFI (RFU) was found to be 4420 RFU in assay [11]; 11100 RFU in assay [12]; 132000 RFU in assay [14]; 5660 RFU in assay [16]; 20900 RFU in assay [17]; 107000 RFU in [18].

B3: A-BrAcMMAE (antibody, human IgG1, kappa, V domains shown)
VH: B2 VH
VL: B2 VL
modifications: MMAE drug-linker (compound 11, bromoacetyl-Val-Cit-PAB-MMAE) on reduced cysteine sulfhydryls; average DAR 3.5-4; positions not given
For B3, in assay [21], the “IC50 (nM) for inhibition of proliferation, Calu6 cells, CellTiterGlo2” value is 11 nM; the “IC50 (nM) for inhibition of proliferation, MCF7-Liv1 #7 cells, CellTiterGlo2” value is 0.03 nM; the “IC50 (nM) for inhibition of proliferation, MCF7-Liv1 #12 cells, CellTiterGlo2” value worked out at 0.031 nM; the “IC50 (nM) for inhibition of proliferation, MCF7-Liv1 #17 cells, CellTiterGlo2” value was found to be 0.05 nM.

B4: Antibody A-1 (antibody, human IgG1, kappa, V domains shown)
VH: B2 VH with N77D
VL: B2 VL
Consider B4, for which, in assay [22], the Kd stood at 0.0524 nM, the koff stood at 4.17e-05 s⁻¹ and the kon came out at 796000 M⁻¹ s⁻¹.

The record behind these values is patent EP4682168A1, “ANTI-LIV-1 ANTIBODY AND ANTI-LIV-1 ANTIBODY-DRUG CONJUGATE, AND PHARMACEUTICAL USE THEREOF” (priority 2023, dated 2024).
